Experimental data: article PMC4121545

Test system: Lac-mCherry (lac repressor-mCherry fusion, dimeric) (Escherichia coli)
Assay: in vitro transcription repression (indirect), global MWC fit
Settings: no effector, R conformer (KRO); 20 mM Mg2+; 2 mM spermidine; 20 mM Tris-HCl pH 7.9, 20 mM MgCl2, 1 mM DTT, 2 mM spermidine-HCl, NTPs (0.5 mM GTP/ATP/UTP, 0.25 mM CTP), 37 C, 30 min

O1 operator reporter, linearized 450 bp
Ka: 0.42 nM⁻¹
